Article doi:10.1101/2023.09.30.560296 (bioRxiv, 2023)
Several values for one entry are separate records, joined by “and”; a condition that tells them apart may be missing. Equal entries are not always repeated. Square brackets hold non-standard residues; d marks the D form. Ends that are not written are not given here. * marks the point of attachment. FITC = O=C1OC2(c3ccc(O)cc3Oc3cc(O)ccc32)c2ccc(NC(=S)*)cc21; pS = N[C@@H](COP(=O)(O)O)C(=O)O; Ahx = NCCCCCC(=O)O

Experiments:
[1] = target: T1, GST-fused LC3B (UniProt Q9GZQ8 1-120); test: Microfluidic Diffusional Sizing
[2] = target: T1, GST-fused LC3B; test: SPR

Kd [1] | Kd [2] [µM] | Binder | also measured
15.9 µM |  | {FITC-Ahx}-NSSGSSEDSWVEIRMAE [FITC-Ahx OPTN LIR peptide 169-185 (F178W)] | 
44.8 µM | 36.7 | {FITC-Ahx}-NSSGSSEDDFVEIRMAE [FITC-Ahx OPTN LIR peptide 169-185 (S177D)] | 
42.8 µM |  | {FITC-Ahx}-NSSGSSEDEFVEIRMAE [FITC-Ahx OPTN LIR peptide 169-185 (S177E)] | 
 | 36.7 | {FITC-Ahx}-NSSGSSED[pS]FVEIRAAE [FITC-Ahx OPTN LIR peptide 169-185 (pS177 M183A)] | 
 | > 100 | {FITC-Ahx}-NSSGSSED[pS]AVEIRMAE [FITC-Ahx OPTN LIR peptide 169-185 (pS177 F178A)] | fold increase of Kd against pS177 [1]: 5 fold
 |  | {FITC-Ahx}-NSSGSSED[pS]WVEIRMAE [FITC-Ahx OPTN LIR peptide 169-185 (pS177 F178W)] | fold increase of binding affinity against pS177 [1]: 7 fold
14.3 µM and 13.7 µM |  | {FITC-Ahx}-NSSGSSED[pS]FVEIRMAE [FITC-Ahx OPTN LIR peptide 169-185 (pS177)] | 
